Test results from publication doi:10.1101/2020.07.09.195057 (bioRxiv, 2020).
One block for each binder: values may come before it.

How the values were obtained:
[1] = target: T1, Dcp1(1-127) (S. pombe, UniProt Q9P805 1-127, perdeuterated background, 1H/13C-labelled ILVMA terminal methyl groups); assay: co-purification
T1 sequence (looked up): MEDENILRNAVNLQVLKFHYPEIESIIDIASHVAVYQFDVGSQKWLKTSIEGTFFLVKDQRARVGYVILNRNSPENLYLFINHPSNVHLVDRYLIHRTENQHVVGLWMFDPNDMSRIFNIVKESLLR

[2] = target: T2, Dcp1/Dcp2core (Schizosaccharomyces pombe, UniProt Q9P805;O13828 1-127;1-243); assay: fluorescence polarization
T2 sequence 1: T1 sequence (looked up)
T2 sequence 2: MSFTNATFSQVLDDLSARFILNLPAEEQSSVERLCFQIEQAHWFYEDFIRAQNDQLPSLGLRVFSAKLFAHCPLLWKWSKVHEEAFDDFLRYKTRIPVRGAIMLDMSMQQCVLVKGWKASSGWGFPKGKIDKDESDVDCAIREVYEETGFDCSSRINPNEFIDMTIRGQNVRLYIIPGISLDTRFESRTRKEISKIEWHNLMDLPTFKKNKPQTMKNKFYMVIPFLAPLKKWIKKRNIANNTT

binding result [1]: binds
B1: Dcp2(1-504)_(eSrtA), sortase-ligated Dcp2ext with C-terminal StrepII (domain or fragment, S. pombe)
chain: MSFTNATFSQVLDDLSARFILNLPAEEQSSVERLCFQIEQAHWFYEDFIRAQNDQLPSLGLRVFSAKLFAHCPLLWKWSKVHEEAFDDFLRYKTRIPVRGAIMLDMSMQQCVLVKGWKASSGWGFPKGKIDKDESDVDCAIREVYEETGFDCSSRINPNEFIDMTIRGQNVRLYIIPGISLDTRFESRTRKEISKIEWHNLMDLPTFKKNKPQTMKNKFYMVIPFLAPLKKWIKKRNIANNTTKEKNISVDVDADASSQLLSLLKSLPETGGGATPQPSTFPQPPVESHSSFDIKQKILHLLNEGNEPKSPIQLPPVSNLPLNPPIQSSNSRLSHDNNSFDPFAYLGLDPKNPSASFPRVVSQNNMLTNKPVLNNHFQQSMYSNLLKDQNSVQHLFAASDMPSPMELPSPSTVYHQVFYPPTSTSVSSYGLGKTPQPAYGSSSPYVNGHQTQQISSLPPFQSQTQFLARNSDNSGQSYNSEGDSNSKRLLSMLSQQDTTPSSST
modifications: residues 1-266 perdeuterated with 1H/13C-labelled ILVMA terminal methyl groups; 274-504 unlabelled

B2: 30U RNA (ssRNA)
RNA: UUUUUUUUUUUUUUUUUUUUUUUUUUUUUU
modifications: 5' phosphate
binding result [2]: binds
